Assay results published in the supplement of paper PMC10126150.
± gives the standard deviation of the averaged measurements.

Tested on: ATP
Assay: switch fluorescence ratio, 500 uM ATP over buffer (Cy3 cluster intensity, sum of 5 cycles each) (fold (ratio)); higher = stronger signal-on switching upon ATP binding; sequences stand for … in TCGTCGGCAGCGTCAGATGTGTATAAGAGACAGTTTTTTTTTTTTTTTTTTTTTTTTT…TC
Conditions: aptamer strand: ATP DNA aptamer (quencher-CACCTGGGGGAGTATTGCGGAGGAAGG + anchor), 100 nM annealed; ATP concentration: 500 uM
How it was run: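 Per cluster, summed Cy3 intensity from the target cycles was divided by that from the buffer cycles to give the fluorescence ratio, then averaged per switch-domain sequence. Clusters outside 100-1000 RFU were excluded. The Cy3-labelled switching-strand clusters, on a modified Illumina MiSeq flow-cell, were annealed to 100 nM quencher-labelled ATP aptamer and imaged in selection buffer, then after 15 min with 500 uM ATP at 22 °C, for five cycles with NaOH stripping and re-annealing between them.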
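Also: ATP exposure 15 min at 22 °C before imaging.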

| Sequence | switch fluorescence ratio |
| --- | --- |
| TTTGGAGCAG | 1.14 ± 0.13 |
| TTTGGAGGGT | 1.02 ± 0.064 |
| TTTGGAGGTA | 1.01 ± 0.059 |
| TTTGGAGTGC | 1 ± 0.05 |
| TTTGGAGTT | 1 ± 0.02 |
| TTTGGATATA | 0.9726 ± 0.0041 |
| TTTGGATATG | 0.992 ± 0.037 |
| TTTGGATGAC | 1.01 ± 0.063 |
| TTTGGATGGC | 1.02 ± 0.057 |
| TTTGGATGTT | 1 ± 0.011 |
| TTTGGATTAG | 0.9746 ± 0.0037 |
| TTTGGATTTG | 1.03 ± 0.027 |
| TTTGGCACAC | 1.046 ± 0.0048 |
| TTTGGCAGGG | 0.996 ± 0.024 |
| TTTGGCATCA | 1.04 ± 0.013 |
| TTTGGCCGGT | 1.04 ± 0.056 |
| TTTGGCGAAA | 1.01 ± 0.019 |
| TTTGGCGGAA | 1.04 ± 0.011 |
| TTTGGCGTTT | 1.01 ± 0.024 |
| TTTGGCTGGA | 1.04 ± 0.072 |
| TTTGGCTGTG | 0.973 ± 0.029 |
| TTTGGGAAAG | 0.978 ± 0.032 |
| TTTGGGAATG | 1.06 ± 0.13 |
| TTTGGGACCT | 1 ± 0.048 |
| TTTGGGACGG | 0.999 ± 0.065 |
| TTTGGGAGTT | 1.05 ± 0.19 |

| Sequence | switch fluorescence ratio |
| --- | --- |
| TTTGGGATAC | 1.24 ± 0.28 |
| TTTGGGATGG | 0.983 ± 0.046 |
| TTTGGGCCGT | 0.971 ± 0.043 |
| TTTGGGGATT | 1.01 ± 0.036 |
| TTTGGGGCGA | 1.02 ± 0.031 |
| TTTGGGGCGC | 1.01 ± 0.048 |
| TTTGGGGCGG | 0.989 ± 0.038 |
| TTTGGGGGCG | 0.983 ± 0.081 |
| TTTGGGGTTG | 0.999 ± 0.037 |
| TTTGGGTGGG | 0.985 ± 0.041 |
| TTTGGGTGTG | 0.983 ± 0.016 |
| TTTGGGTTAT | 1.08 ± 0.21 |
| TTTGGGTTTC | 0.977 ± 0.017 |
| TTTGGTAATT | 1.03 ± 0.034 |
| TTTGGTAGTT | 0.987 ± 0.015 |
| TTTGGTCGGG | 1.01 ± 0.03 |
| TTTGGTGAAC | 1 ± 0.022 |
| TTTGGTGGAA | 1.01 ± 0.044 |
| TTTGGTGTCC | 0.984 ± 0.017 |
| TTTGGTTATA | 1 ± 0.012 |
| TTTGGTTCCT | 1.014 ± 0.0091 |
| TTTGGTTCTG | 1.01 ± 0.012 |
| TTTGGTTGGA | 0.992 ± 0.038 |
| TTTGTAAAGA | 1 ± 0.018 |
| TTTGTAAGGT | 1.032 ± 0.0089 |
| TTTGTAAGTA | 1 ± 0.013 |

| Sequence | switch fluorescence ratio |
| --- | --- |
| TTTGTACGCA | 1.71 ± 1 |
| TTTGTACTGG | 1.01 ± 0.041 |
| TTTGTACTTT | 1.01 ± 0.041 |
| TTTGTAGGGA | 1.02 ± 0.028 |
| TTTGTATAGT | 1.003 ± 0.0019 |
| TTTGTATGG | 0.9819 ± 0.0042 |
| TTTGTATGGG | 0.972 ± 0.018 |
| TTTGTCAAAC | 1.11 ± 0.13 |
| TTTGTCATGG | 1.04 ± 0.037 |
| TTTGTCGCAT | 1.14 ± 0.067 |
| TTTGTCGCGG | 1.02 ± 0.025 |
| TTTGTCTGTG | 0.983 ± 0.03 |
| TTTGTGAATT | 0.972 ± 0.012 |
| TTTGTGATCA | 0.998 ± 0.032 |
| TTTGTGCACC | 0.9941 ± 0.005 |
| TTTGTGCGTC | 0.977 ± 0.055 |
| TTTGTGGACG | 1.08 ± 0.08 |
| TTTGTGGCTG | 0.986 ± 0.037 |
| TTTGTGGGC | 0.981 ± 0.028 |
| TTTGTGGGTA | 1.01 ± 0.039 |
| TTTGTGGTGG | 1.01 ± 0.012 |
| TTTGTGTAAA | 1 ± 0.032 |
| TTTGTGTGCG | 0.904 ± 0.047 |
| TTTGTGTGGA | 1.03 ± 0.0059 |
| TTTGTGTGGG | 1.03 ± 0.03 |
